T1: BGL2 (Clavispora sp. NRRL Y-50464, UniProt A0A141S030)
T1 construct: C-terminal His tag, vector pPICZalphaA, expressed in Pichia X33; partially purified by Ni-NTA; GH3
T1 sequence (A0A141S030 1-804): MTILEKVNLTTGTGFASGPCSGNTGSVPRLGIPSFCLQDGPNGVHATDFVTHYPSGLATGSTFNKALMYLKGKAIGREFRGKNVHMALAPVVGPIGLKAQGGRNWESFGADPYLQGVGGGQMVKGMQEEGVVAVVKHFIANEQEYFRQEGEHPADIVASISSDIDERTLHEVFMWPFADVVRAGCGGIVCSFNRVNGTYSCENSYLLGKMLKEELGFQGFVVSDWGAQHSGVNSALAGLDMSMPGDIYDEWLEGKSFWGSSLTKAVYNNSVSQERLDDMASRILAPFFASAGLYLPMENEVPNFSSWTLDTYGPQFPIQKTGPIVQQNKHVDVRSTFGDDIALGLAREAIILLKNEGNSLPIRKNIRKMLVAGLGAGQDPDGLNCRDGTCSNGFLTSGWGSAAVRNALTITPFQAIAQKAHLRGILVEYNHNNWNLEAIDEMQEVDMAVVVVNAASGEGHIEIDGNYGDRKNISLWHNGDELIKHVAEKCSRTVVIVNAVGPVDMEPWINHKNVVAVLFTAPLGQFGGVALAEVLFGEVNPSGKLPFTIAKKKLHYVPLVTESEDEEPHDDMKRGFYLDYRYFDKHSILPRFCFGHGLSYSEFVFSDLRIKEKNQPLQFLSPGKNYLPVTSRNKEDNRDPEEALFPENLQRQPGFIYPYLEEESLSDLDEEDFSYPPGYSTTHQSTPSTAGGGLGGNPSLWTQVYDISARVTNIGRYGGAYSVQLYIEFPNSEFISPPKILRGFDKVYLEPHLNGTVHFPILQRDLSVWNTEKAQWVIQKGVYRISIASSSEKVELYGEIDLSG

T2: BGL3 (Clavispora sp. NRRL Y-50464, UniProt A0A141S029)
T2 construct: C-terminal His tag, vector pPICZalphaB, expressed in Pichia X33; partially purified by Ni-NTA; GH3
T2 sequence (A0A141S029 1-837): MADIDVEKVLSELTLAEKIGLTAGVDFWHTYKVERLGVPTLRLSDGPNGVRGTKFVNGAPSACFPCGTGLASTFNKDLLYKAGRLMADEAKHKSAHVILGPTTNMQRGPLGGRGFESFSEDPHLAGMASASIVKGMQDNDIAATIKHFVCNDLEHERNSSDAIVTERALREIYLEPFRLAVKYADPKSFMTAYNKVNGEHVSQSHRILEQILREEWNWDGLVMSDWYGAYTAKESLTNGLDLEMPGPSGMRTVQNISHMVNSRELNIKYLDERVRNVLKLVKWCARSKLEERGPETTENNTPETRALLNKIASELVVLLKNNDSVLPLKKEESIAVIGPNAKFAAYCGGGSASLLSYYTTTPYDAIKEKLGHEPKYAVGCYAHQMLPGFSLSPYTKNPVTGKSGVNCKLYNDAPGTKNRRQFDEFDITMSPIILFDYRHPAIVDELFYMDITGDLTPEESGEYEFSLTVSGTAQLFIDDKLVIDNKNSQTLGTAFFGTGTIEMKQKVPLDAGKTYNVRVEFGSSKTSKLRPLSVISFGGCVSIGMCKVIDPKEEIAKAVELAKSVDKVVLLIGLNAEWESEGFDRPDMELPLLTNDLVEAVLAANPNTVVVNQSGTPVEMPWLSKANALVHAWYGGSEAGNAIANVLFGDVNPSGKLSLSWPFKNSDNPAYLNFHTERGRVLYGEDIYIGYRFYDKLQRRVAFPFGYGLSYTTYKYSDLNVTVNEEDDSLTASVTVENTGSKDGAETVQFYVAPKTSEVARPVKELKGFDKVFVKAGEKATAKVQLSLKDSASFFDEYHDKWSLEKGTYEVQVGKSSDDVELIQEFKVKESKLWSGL


How the values were obtained:
BGL2 = target: T1, BGL2; assay: pNPG hydrolysis, absorbance at […] nm; format: biochemical; conditions: product inhibition; substrate pNPG; 100 mM citrate buffer, optimal pH and temperature (pH 5, 50°C); read-out: K i (mM) (against glucose)
BGL3 = target: T2, BGL3; assay: pNPG hydrolysis, absorbance at […] nm; format: biochemical; conditions: product inhibition; substrate pNPG; 100 mM citrate buffer, optimal pH and temperature (pH 5, 55°C); read-out: K i (mM) (against glucose)
purified protein = substrate: O=[N+]([O-])c1ccc(O[C@@H]2O[C@H](CO)[C@@H](O)[C@H](O)[C@H]2O)cc1; assay: purified protein; conditions: 100 mM citrate buffer

Molecule	Ki (BGL2) [mM]	Ki (BGL3) [mM]	Km (purified protein) [µM]	Vmax (purified protein) [µmol/min/mg]	kcat (purified protein) [s⁻¹]	kcat/Km (purified protein) [M⁻¹ s⁻¹]
OC[C@H]1OC(O)[C@H](O)[C@@H](O)[C@@H]1O (stereo partly shown) [glucose]	62 ± 2.49	38.3 ± 1.15				
BGL3 (Clavispora sp. NRRL Y-50464) (protein) MADIDVEKVLSELTLAEKIGLTAGVDFWHTYKVERLGVPTLRLSDGPNGVRGTKFVNGAPSACFPCGTGLASTFNKDLLYKAGRLMADEAKHKSAHVILGPTTNMQRGPLGGRGFESFSEDPHLAGMASASIVKGMQDNDIAATIKHFVCNDLEHERNSSDAIVTERALREIYLEPFRLAVKYADPKSFMTAYNKVNGEHVSQSHRILEQILREEWNWDGLVMSDWYGAYTAKESLTNGLDLEMPGPSGMRTVQNISHMVNSRELNIKYLDERVRNVLKLVKWCARSKLEERGPETTENNTPETRALLNKIASELVVLLKNNDSVLPLKKEESIAVIGPNAKFAAYCGGGSASLLSYYTTTPYDAIKEKLGHEPKYAVGCYAHQMLPGFSLSPYTKNPVTGKSGVNCKLYNDAPGTKNRRQFDEFDITMSPIILFDYRHPAIVDELFYMDITGDLTPEESGEYEFSLTVSGTAQLFIDDKLVIDNKNSQTLGTAFFGTGTIEMKQKVPLDAGKTYNVRVEFGSSKTSKLRPLSVISFGGCVSIGMCKVIDPKEEIAKAVELAKSVDKVVLLIGLNAEWESEGFDRPDMELPLLTNDLVEAVLAANPNTVVVNQSGTPVEMPWLSKANALVHAWYGGSEAGNAIANVLFGDVNPSGKLSLSWPFKNSDNPAYLNFHTERGRVLYGEDIYIGYRFYDKLQRRVAFPFGYGLSYTTYKYSDLNVTVNEEDDSLTASVTVENTGSKDGAETVQFYVAPKTSEVARPVKELKGFDKVFVKAGEKATAKVQLSLKDSASFFDEYHDKWSLEKGTYEVQVGKSSDDVELIQEFKVKESKLWSGL			180 ± 20	1.63	1.4	7710
BGL2 (Clavispora sp. NRRL Y-50464) (protein) MTILEKVNLTTGTGFASGPCSGNTGSVPRLGIPSFCLQDGPNGVHATDFVTHYPSGLATGSTFNKALMYLKGKAIGREFRGKNVHMALAPVVGPIGLKAQGGRNWESFGADPYLQGVGGGQMVKGMQEEGVVAVVKHFIANEQEYFRQEGEHPADIVASISSDIDERTLHEVFMWPFADVVRAGCGGIVCSFNRVNGTYSCENSYLLGKMLKEELGFQGFVVSDWGAQHSGVNSALAGLDMSMPGDIYDEWLEGKSFWGSSLTKAVYNNSVSQERLDDMASRILAPFFASAGLYLPMENEVPNFSSWTLDTYGPQFPIQKTGPIVQQNKHVDVRSTFGDDIALGLAREAIILLKNEGNSLPIRKNIRKMLVAGLGAGQDPDGLNCRDGTCSNGFLTSGWGSAAVRNALTITPFQAIAQKAHLRGILVEYNHNNWNLEAIDEMQEVDMAVVVVNAASGEGHIEIDGNYGDRKNISLWHNGDELIKHVAEKCSRTVVIVNAVGPVDMEPWINHKNVVAVLFTAPLGQFGGVALAEVLFGEVNPSGKLPFTIAKKKLHYVPLVTESEDEEPHDDMKRGFYLDYRYFDKHSILPRFCFGHGLSYSEFVFSDLRIKEKNQPLQFLSPGKNYLPVTSRNKEDNRDPEEALFPENLQRQPGFIYPYLEEESLSDLDEEDFSYPPGYSTTHQSTPSTAGGGLGGNPSLWTQVYDISARVTNIGRYGGAYSVQLYIEFPNSEFISPPKILRGFDKVYLEPHLNGTVHFPILQRDLSVWNTEKAQWVIQKGVYRISIASSSEKVELYGEIDLSG			80 ± 10	5.27	9.13	114000 ± 1570

— publication PMC4806929, “Two New Native β-Glucosidases from Clavispora NRRL Y-50464 Confer Its Dual Function as Cellobiose Fermenting Ethanologenic Yeast” (PLoS ONE, 2016)
